Assay results published in US7662583B2, “Bioreactor containing cells expressing glycosyltransferase nucleic acids isolatable from Arabidopsis” (The University of York, priority 2003, dated 2010).

B1: UGT85A1: glycosyltransferase, FIG. 12, glucosylates cytokinins (protein, listed as Arabidopsis thaliana)
chain: MGSQIIHNSQKPHVVCVPYPAQGHINPMMRVAKLLHARGFYVTFVNTVYNHNRFLRSRGSNALDGLPSFRFESIADGLPETDMDATQDITALCESTMKNCLAPFRELLQRINAGDNVPPVSCIVSDGCMSFTLDVAEELGVPEVLFWTTSGCAFLAYLHFYLFIEKGLCPLKDESYLTKEYLEDTVIDFIPTMKNVKLKDIPSFIRTTNPDDVMISFALRETERAKRASAIILNTFDDLEHDVVHAMQSILPPVYSVGPLHLLANREIEEGSEIGMMSSNLWKEEMECLDWLDTKTQNSVIYINFGSITVLSVKQLVEFAWGLAGSGKEFLWVIRPDLVAGEEAMVPPDFLMETKDRSMLASWCPQEKVLSHPAIGGFLTHCGWNSILESLSCGVPMVCWPFFADQQMNCKFCCDEWDVGIEIGGDVKREEVEAVVRELMDGEKGKKMREKAVEWQRLAEKATEHKLGSSVMNFETVVSKFLLGQKSQD
B2: UGT76C2: glycosyltransferase, FIG. 10, glucosylates cytokinins (protein, listed as Arabidopsis thaliana)
chain: MEEKRNGLRVILFPLPLQGCINPMLQLANILHVRGFSITVIHTRFNAPKASSHPLFTFLQIPDGLSETEIQDGVMSLLAQINLNAESPFRDCLRKVLLESKESERVTCLIDDCGWLFTQSVSESLKLPRLVLCTFKATFFNAYPSLPLIRTKGYLPVSESEAEDSVPEFPPLQKRDLSKVFGEFGEKLDPFLHAVVETTIRSSGLIYMSCEELEKDSLTLSNEIFKVPVFAIGPFHSYFSASSSSLFTQDETCILWLDDQEDKSVIYVSLGSVVNITETEFLEIACGLSNSKQPFLWVVRPGSVLGAKWIEPLSEGLVSSLEEKGKIVKWAPQQEVLAHRATGGFLTHNGWNSTLESICEGVPMICLPGGWDQMLNSRFVSDIWKIGIHLEGRIEKKEIEKAVRVLMEESEGNKIRERMKVLKDEVEKSVKQGGSSFQSIETLANHILLL
B3: UGT76C1: glycosyltransferase, FIG. 9, glucosylates cytokinins (protein, listed as Arabidopsis thaliana)
chain: MEKRNERQVILFPLPLQGCINPMLQLAKILYSRGFSITIIHTRFNAPKSSDHPLFTFLQIRDGLSESQTQSRDLLLQLTLLNNNCQIPFRECLAKLIKPSSDSGTEDRKISCVIDDSGWVFTQSVAESFNLPRFVLCAYKFSFFLGHFLVPQIRREGFLPVPDSEADDLVPEFPPLRKKDLSRIMGTSAQSKPLDAYLLKILDATKPASGIIVMSCKELDHDSLAESNKVFSIPIFPIGPFHIHDVPASSSSLLEPDQSCIPWLDMRETRSVVYVSLGSIASLNESDFLEIACGLRNTNQSFLWVVRPGSVHGRDWIESLPSGFMESLDGKGKIVRWAPQLDVLAHRATGGFLTHNGWNSTLESICEGVPMICLPCKWDQFVNARFISEVWRVGIHLEGRIERREIERAVIRLMVESKGEEIRGRIKVLRDEVRRSVKQGGSSYRSLDELVDRISIIIEPLVPT
B4: UGT73C5: Arabidopsis recombinant glycosyltransferase, FIG. 11 (protein, listed as Arabidopsis thaliana)
chain: MVSETTKSSPLHFVLFPFMAQGHMIPMVDIARLLAQRGVIITIVTTPHNAARFKNVLNRAIESGLPINLVQVKFPYLEAGLQEGQENIDSLDTMERMIPFFKAVNFLEEPVQKLIEEMNPRPSCLISDFCLPYTSKIAKKFNIPKILFHGMGCFCLLCMHVLRKNREILDNLKSDKELFTVPDFPDRVEFTRTQVPVETYVPAGDWKDIFDGMVEANETSYGVIVNSFQELEPAYAKDYKEVRSGKAWTIGPVSLCNKVGADKAERGNKSDIDQDECLKWLDSKKHGSVLYVCLGSICNLPLSQLKELGLGLEESQRPFIWVIRGWEKYKELVEWFSESGFEDRIQDRGLLIKGWSPQMLILSHPSVGGFLTHCGWNSTLEGITAGLPLLTWPLFADQFCNEKLVVEVLKAGVRSGVEQPMKWGEEEKIGVLVDKEGVKKAVEELMGESDDAKERRRRAKELGDSAHKAVEEGGSSHSNISFLLQDIMELAEPNN

Assays:
[1] = UGT enzyme reaction with cytokinins; assay type: biochemical; conditions: for Cytokinin products formed by the UGTs: 7-N-glucoside / Cytokinin products formed by the UGTs: 9-N-glucoside: cytokinins, 0.5 mM, 30° C., 3 h
Procedure: The assay mix (200 μl) contained 2 μg of recombinant protein, 100 mM Tris-HCl, pH 8.0, 5 mM UDP-glucose 0.5 mM ATP, 50 mM MgCl2, and 0.5 mM of cytokinin. The reaction was carried out at 30° C. for 3 h, and was quick-frozen and stored at −20° C. prior to the reverse-phase HPLC analysis
Reverse-phase HPLC (SpectraSYSTEM HPLC systems and UV6000LP Photodiode Array Detector, ThermoQuest) analysis was carried using a Columbus 5μ C18 column (250×4.60 mm, PHENOMENEX). Quercetin glucosides were separated from the aglycone by a linear gradient of 10-75% acetonitrile in H2O (all solution contained 0.1% trifluoroacetic acid) at 1 ml/mm over 20 mm and monitored at 370 nm. Cytokinin glucosides were separated from their aglycone by a liner gradient of 10-100% methanol in H2O (for N6-isopentenyladenine (iP), N6-benzyladenine and kinetin) or 10-60% methanol in H2O (for trans-zeatin and dihydrozeatin) at 1 ml/min over 20 mm. All solution contained 0.25% acetic acid and 0.04% triethylamine, trifluoroacetic acid. The separation was monitored at 206 nm and 252 nm. The identity of the products was confirmed by comparison with authentic gluco sides.
• 1. 7-N-glucoside (76C1, 76C2) • 2. 9-N-glucoside (76C1, 76C2) • 3. O-glucoside (only apply to trans-Zeatin and dihydrozeatin) (85A1 for trans-Zeatin; 85A1 and 73C5 for dihydrozeatin) Large Scale Fermentation

[2] = UGT enzyme reaction with quercetin (recombinant UGTs, HPLC); assay type: biochemical, Arabidopsis; conditions: 0.5 mM quercetin, 5 mM UDP-glucose, 30° C.
How it was run: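 Recombinant Arabidopsis UGTs (2 μg) incubated with 0.5 mM quercetin and 5 mM UDP-glucose in 100 mM Tris-HCl pH 7.0 at 30 °C for 1 h. Quercetin glucosides separated from aglycone by reverse-phase C18 HPLC (acetonitrile gradient, 0.1% TFA), detected at 370 nm.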

| Molecule | Cytokinin products formed by the UGTs: O-glucoside ([1]; substrate dihydrozeatin) | Cytokinin products formed by the UGTs: 7-N-glucoside [1] | Cytokinin products formed by the UGTs: 9-N-glucoside [1] | further results |
| --- | --- | --- | --- | --- |
| B1 | O-glucoside | – | – | Cytokinin products formed by the UGTs: O-glucoside ([1]; substrate trans-Zeatin): O-glucoside |
| B2 | – | 7-N-glucoside | 9-N-glucoside | – |
| B3 | – | 7-N-glucoside | 9-N-glucoside | – |
| B4 | O-glucoside | – | – | Specific activity (nkat/mg protein) 3-O-glc ([2]; quercetin glucosylated at 3-OH): — (Activity lower than 0.02 nkat/mg protein has been considered as trace activity and is not shown in the Table.); Specific activity (nkat/mg protein) 3′-O-glc ([2]; quercetin glucosylated at 3′-OH): — (Activity lower than 0.02 nkat/mg protein has been considered as trace activity and is not shown in the Table.); Specific activity (nkat/mg protein) 4′-O-glc ([2]; quercetin glucosylated at 4′-OH): 0.25 nkat/mg protein; Specific activity (nkat/mg protein) 7-O-glc ([2]; quercetin glucosylated at 7-OH): 0.11 nkat/mg protein |
